The results in this text go back to patent publication US20170029794.

Data set [1] deals with TALEN right arm (pCLS9996) (artificial (Xanthomonas TALE?)). Kind of data set: cell_activity. As to conditions: paired with left arm P2; 153 of 153 galactose colonies of homozygous sup4-(CAG) diploid yeast show repeat contraction; >99% gene conversion in heterozygous ….
The test system of data set [2] is TALEN left arm (pCLS16715) (artificial (Xanthomonas TALE?)). Kind of data set: cell_activity. Particulars: paired with right arm P1; 153 of 153 galactose colonies of homozygous sup4-(CAG) diploid yeast show repeat contraction; >99% gene conversion in heterozygous ….

In data set [1], “GCTGCTGCTGCTGCT (double strand) [right TALE target site in sup4-(CAG)]” came in with an activity of 100%. As for “GTGATCCCCCCAGCA (double strand) [left TALE target site in sup4-(CAG)]”, the activity in data set [2] is 100%.
